From PMC11543927, “Subtleties in Clathrin heavy chain binding boxes provide selectivity among adaptor proteins of budding yeast” (Nature Communications, 2024) come the findings set out here.

Numbering of substitutions follows the chain as printed.

Common to all, as to settings: both partners purified
Assay [1] deals with T1, ScChc-NTD Clathrin and Arrestin box mutant (Cla+Arr) (Saccharomyces cerevisiae, UniProt P22137 1-369, K63E | I87D | Q89A | K98E | Q195A | I197T | K251E).
T1 construct: Clathrin heavy chain N-terminal domain, Saccharomyces cerevisiae, residues 1-369, Clathrin and Arrestin box mutant
T1 sequence (looked up): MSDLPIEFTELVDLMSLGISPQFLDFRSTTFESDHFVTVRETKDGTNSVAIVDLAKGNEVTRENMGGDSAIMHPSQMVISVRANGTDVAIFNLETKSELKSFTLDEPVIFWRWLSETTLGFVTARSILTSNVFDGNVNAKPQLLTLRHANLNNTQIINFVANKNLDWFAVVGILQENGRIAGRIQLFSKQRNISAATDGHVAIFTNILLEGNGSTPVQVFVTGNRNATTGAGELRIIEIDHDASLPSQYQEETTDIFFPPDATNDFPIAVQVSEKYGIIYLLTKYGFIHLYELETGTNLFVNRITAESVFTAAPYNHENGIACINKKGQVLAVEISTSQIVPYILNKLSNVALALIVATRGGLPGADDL
Description: nanoDSF thermal shift; ScChc-NTD mutants 10 µM with Ent1 or Ent2 peptide, thermal ramp up to 80 °C; apparent KD from the Tm shift model. For orientation: In DSF a fluorescence change marks the thermal transition of the protein.

In assay [2] the target is T2, ScChc-NTD Clathrin and W box mutant (Cla+W) (Saccharomyces cerevisiae, UniProt P22137 1-369, F26A | K63E | I87D | Q89A | K98E | Q155A).
T2 construct: Clathrin heavy chain N-terminal domain, Saccharomyces cerevisiae, residues 1-369, Clathrin and W box mutant
T2 sequence (looked up): T1 sequence (looked up) with F26A, Q155A, A195Q, T197I, E251K
Described as above.

Assay [3] concerns the target T3, ScChc-NTD Clathrin box mutant (K63E, I87D, Q89A, K98E) (Saccharomyces cerevisiae, UniProt P22137 1-369, K63E | I87D | Q89A | K98E).
T3 construct: Clathrin heavy chain N-terminal domain, Saccharomyces cerevisiae, residues 1-369, Clathrin box mutant; also called Cla mutant
T3 sequence (looked up): T1 sequence (looked up) with A195Q, T197I, E251K
The assay is described as above.

For assay [4], the target named is T4, ScChc-NTD Arrestin box mutant (Q195A, I197T, K251E) (Saccharomyces cerevisiae, UniProt P22137 1-369, Q195A | I197T | K251E).
T4 construct: Clathrin heavy chain N-terminal domain, Saccharomyces cerevisiae, residues 1-369, Arrestin box mutant; also called Arr mutant
T4 sequence (looked up): T1 sequence (looked up) with E63K, D87I, A89Q, E98K
The description is as above.

The target of assay [5] is T5, Saccharomyces cerevisiae clathrin heavy chain N-terminal domain (ScChc-NTD, 1-369) (Saccharomyces cerevisiae, UniProt P22137 1-369).
T5 construct: Clathrin heavy chain N-terminal domain, Saccharomyces cerevisiae, residues 1-369; pETM-30 vector with a His-GST tag and a TEV cleavage site; also called WT NTD; source: E. coli BL21 (DE3), purified (Ni-NTA, TEV cleavage, reverse Ni-NTA, SEC)
T5 sequence (looked up): T1 sequence (looked up) with E63K, D87I, A89Q, E98K, A195Q, T197I, E251K
Description: nanoDSF thermal shift; ScChc-NTD 8 µM incubated with eleven peptide concentrations (1:1 dilutions) for 15 min, heated 20-95 °C at 1 °C/min, SEC buffer (50 mM Tris pH 9, 150 mM NaCl, 0.5 mM TCEP); apparent KD from the Tm shift model, one to one binding assumed, global average over all boxes.

B1: Ent1 CBM peptide (GYTLIDL) (peptide)
peptide: GYTLIDL
notes: also called Ent1 peptide; source: synthetic peptide, bought: NovoProLabs
As to B1, the Kd in assay [1] was around 2050 µM; in assay [3] it was around 968 µM; in assay [4] it was around 166 µM; in assay [5] it was around 138 µM. Also, in assay [2], the “fold decrease in binding against WT NTD” value is around 9 fold.

B2: Ent2 CBM peptide (GVSLIDL) (peptide)
peptide: GVSLIDL
notes: also called Ent2 peptide; source: synthetic peptide, bought: NovoProLabs
B2: in assay [1], the “fold decrease in affinity against WT NTD” value was around 5 fold. In addition, the “fold decrease in binding against WT NTD” value in assay [2] was around 9 fold. For the same molecule, the figures for the Kd in assay [3], in assay [4] and in assay [5] were around 509 µM, around 216 µM and around 177 µM, respectively.
